This is an account of results in PMC9058472.

This test has as its target polymerized microtubules (UniProt P68369).

In turn, “GFP-α-TAT1^DC1 (α-TAT1 with Cluster 1 deleted) (from UniProt Q8K341 1-314) (domain or fragment)” returned a microtubule binding against WT α-TAT1 of 65%.
